± gives the uncertainty stated by the source.
Assay: amyloid nucleation score (Sup35N fusion, yeast selection) (log enrichment); library NNK2; higher = more nucleation; inactive = no reads after selection
Procedure, shortened: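 Using DiMSum, nucleation scores were taken as the log enrichment of output over input reads, centred on the mode score of non-aggregating sequences. The input and output reads came from Illumina sequencing of plasmid inserts, with sequences under 100 input reads excluded. The yeast were psi-negative, expressed Sup35N fused to peptides of 20 random codons, were induced with 100 μM copper sulfate for 24 hours, and were grown 7 days at 30°C on medium lacking adenine and uracil.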
SGCLQRFSQSLGRTCFIWLG gave an amyloid nucleation score of -1.29 ± 0.75.
Substance SGGRYTEATWECG has an amyloid nucleation score of 0.316 ± 0.65.
SGGSDMQHS showed an amyloid nucleation score of 1.61 ± 0.3.
SGILREPVMIQVSVLQEQHW showed an amyloid nucleation score of 5.025 ± 0.045.
SGINNIWYEDLTLPKWSKG gave an amyloid nucleation score of -0.401 ± 0.55.
Substance SGIVG has an amyloid nucleation score of 0.791 ± 0.57.
SGLSAVGSLGVNIEISSFVR showed an amyloid nucleation score of -0.983 ± 0.78.
In the case of SGNKAMWKIIPLT, the amyloid nucleation score is reported as -0.262 ± 0.27.
In the case of SGPLVWLLLWQFNDGLCGWG, the amyloid nucleation score is reported as -0.656 ± 0.49.
Work on SGSAESFLT yielded an amyloid nucleation score of 0.195 ± 0.53.
SGSIKHMNLVMV showed an amyloid nucleation score of -0.027 ± 0.2.
In the case of SGTSLRVTSNRRFDMYGVYG, the amyloid nucleation score is reported as -0.766 ± 0.5.
With SGVFAFTKLLNTIEGDFCHR the amyloid nucleation score was -0.721 ± 0.64.
For SGVPYVNNMEASELSWGKIP, the amyloid nucleation score was “inactive”.
Substance SGWDCSRVIQVLQVKNIYDS has an amyloid nucleation score of 3.36 ± 0.06.
Substance SGYVRCLSAYDFLVNGLPML has an amyloid nucleation score of 0.519 ± 0.31.
Substance SHEIVCTSVRSLTIFKQVQR has an amyloid nucleation score of 3.24 ± 0.059.
With SHFSYKECRSAVRMLQYNGA the amyloid nucleation score was 0.719 ± 0.52.
Work on SHHLRKSFCPC yielded an amyloid nucleation score of -0.279 ± 0.5.
Work on SHPDRTIDSGFDTMRDAIWT yielded an amyloid nucleation score of 0.22 ± 0.63.
In the case of SHSGIFSDAAHDVLGGGEEK, the amyloid nucleation score is reported as 0.503 ± 0.8.
For SHTVTDGWCVV, the amyloid nucleation score was 1.52 ± 0.21.
Work on SHVCYSRNIH yielded an amyloid nucleation score of 1.06 ± 0.26.
Work on SIEYRDLKVCSLLYPVPQSG yielded an amyloid nucleation score of 0.127 ± 0.46.
For SIFITATCNVH, the amyloid nucleation score was “inactive”.
SIFMDRCDWPSCSFGRIHEV gave an amyloid nucleation score of -0.521 ± 0.35.
For SIFMYMYKSFFMGNYINGGM, the amyloid nucleation score was 1.03 ± 0.27.
With SIGKYLCYA the amyloid nucleation score was 2.38 ± 0.057.
In the case of SIKGIEVEYQGFRVCYSTVY, the amyloid nucleation score is reported as “inactive”.
Work on SILLPPFSRAFDSPRIYITP yielded an amyloid nucleation score of -0.82 ± 0.55.
SIRRLTR showed an amyloid nucleation score of -0.172 ± 0.49.
With SIRSKGDILSCSRTTFC the amyloid nucleation score was 5.32 ± 0.071.
In the case of SISGMRWSSNHQVRSVLGAT, the amyloid nucleation score is reported as 1.17 ± 0.33.
In the case of SISLCGVGVRWESVTAGNVC, the amyloid nucleation score is reported as 0.51 ± 0.36.
With SISRVMEMTSLSIHRFIRLC the amyloid nucleation score was -0.918 ± 1.1.
With SISSVLCYWYKNHKNDIVSG the amyloid nucleation score was “inactive”.
For SISVLYNLRLLCIYNIVVYR, the amyloid nucleation score was “inactive”.
Substance SIVFSLW has an amyloid nucleation score of 1.62 ± 0.14.
For SIVSTGFVRDLNRTRCYSGG, the amyloid nucleation score was 0.158 ± 0.56.
With SKCIRLPFFTLLLTNMFHVA the amyloid nucleation score was “inactive”.
SKIGHD gave an amyloid nucleation score of 0.545 ± 0.57.
With SKLYDVCVHRVWRTWGFQEN the amyloid nucleation score was 0.027 ± 1.
SKMSYAYFLSLTMRCVADSM showed an amyloid nucleation score of 3.35 ± 0.06.
SKNYSSWPNPHMIQGLLGSM gave an amyloid nucleation score of -0.735 ± 0.3.
In the case of SKPGNIKWYSGFSKRQREAA, the amyloid nucleation score is reported as “inactive”.
Work on SKRRSSLQPS yielded an amyloid nucleation score of -0.151 ± 0.31.
For SKRVDIKHSMRARDGLNRFW, the amyloid nucleation score was -0.226 ± 1.1.
Substance SLCQSLDSWCYFLLWHWQWY has an amyloid nucleation score of -0.637 ± 1.1.
Work on SLCREVPFLWDFCL yielded an amyloid nucleation score of 0.163 ± 0.63.
With SLEGYKLDAQRRFKMVCEMV the amyloid nucleation score was -0.267 ± 0.33.
In the case of SLFGQLSCQASCRSSKDGGN, the amyloid nucleation score is reported as 6.375 ± 0.061.
Work on SLFWNISPLKWSLLIGRCSV yielded an amyloid nucleation score of -1.01 ± 0.78.
SLGRGPYDRNMIVFMMRELT showed an amyloid nucleation score of -0.682 ± 0.64.
With SLHFCQTVFFYMQILSMLAC the amyloid nucleation score was “inactive”.
For SLKITSYSVCVCCLCMNCNT, the amyloid nucleation score was 7.6 ± 0.052.
With SLKPSLLSDKNE the amyloid nucleation score was -1.39 ± 0.36.
Substance SLKSYVSVQFELASSVWILE has an amyloid nucleation score of 1.02 ± 0.24.
Substance SLLGV has an amyloid nucleation score of -1.3 ± 0.34.
For SLLGVENNCVISFTTIFVVS, the amyloid nucleation score was 5.11 ± 0.088.
With SLLLKVMSR the amyloid nucleation score was -0.627 ± 0.79.
Work on SLMLGVYHLFTCGTQTRCYS yielded an amyloid nucleation score of -0.71 ± 1.
Work on SLMVQWSTILAHIRHFMTA yielded an amyloid nucleation score of 0.073 ± 0.63.
In the case of SLQSYGVYR, the amyloid nucleation score is reported as -0.359 ± 0.76.
In the case of SLSERLVILMTWCTFVVSAQ, the amyloid nucleation score is reported as 1.17 ± 0.29.
For SLSLSSVERNGAANSAREFG, the amyloid nucleation score was 0.647 ± 0.31.
SLSRFCMNLCRFSGGIQSVR gave an amyloid nucleation score of -1.34 ± 0.42.
With SLTCIDWSELQYSNKSFGSM the amyloid nucleation score was -0.766 ± 0.79.
Work on SLTSGRLYEIIIRIYHASFM yielded an amyloid nucleation score of -1.46 ± 0.34.
SLTVTDIKLGHGRV gave an amyloid nucleation score of 6.2 ± 0.04.
With SLVKVGDKRYMFVSTQGKSL the amyloid nucleation score was 0.055 ± 0.42.
SLVNATGRWINVVTNFRLNG showed an amyloid nucleation score of 7.565 ± 0.049.
In the case of SLVTSIVQG, the amyloid nucleation score is reported as -0.434 ± 0.64.
SLVYL gave an amyloid nucleation score of 1.1 ± 0.13.
Work on SMCDNQKLATDFVSAPRKYG yielded an amyloid nucleation score of -0.73 ± 0.79.
With SMCWNL the amyloid nucleation score was 0.17 ± 0.39.
With SMDFNNDC the amyloid nucleation score was “inactive”.
For SMGFSRHRFKG, the amyloid nucleation score was 0.164 ± 0.8.
Work on SMGLDFPWMSRDTGNFGTEI yielded an amyloid nucleation score of -0.337 ± 0.4.
In the case of SMGVGTAVTCRTLVVLDGSC, the amyloid nucleation score is reported as 0.741 ± 0.37.
With SMHEISVLLVDPVTLQYLG the amyloid nucleation score was 0.114 ± 0.63.
With SMIIARILHITCFYRAHRRV the amyloid nucleation score was -0.721 ± 0.64.
Substance SMIYIGIFS has an amyloid nucleation score of 5.281 ± 0.031.
For SMLDILS, the amyloid nucleation score was -1.79 ± 0.62.
SMLFRIRSLNVCSFAGLMRQ showed an amyloid nucleation score of 2.37 ± 0.1.
For SMSPGVFLISGWPMVENVVF, the amyloid nucleation score was “inactive”.
For SMVTFDYV, the amyloid nucleation score was “inactive”.
